Source: patent US20160279196A1 (US Dept. of Health and Human Services, published 2016)
Where two headings read alike, the source gives them in different places.

Columns and labels:
[1] = biological target: T1, naturally processed and presented SSX-2 protein on SSX-2+/HLA-A2+ target cells (human); assay: cell-based or functional assay
[2] = biological target: T1, naturally processed and presented SSX-2 …; assay: cell-based or functional assay; remark: listed apart in the source

interferon-γ levels (pg/ml), co-culture with 293-A2-SSX2 cells [1] [pg/mL]	interferon-γ levels (pg/ml), co-culture with 624 mel cells [1] [pg/mL]	interferon-γ levels (pg/ml), co-culture with 938-A2 mel cells [1] [pg/mL]	interferon-γ levels (pg/ml), co-culture with 1300 mel cells [1] [pg/mL]	interferon-γ levels (pg/ml), co-culture with COS-A2-SSX2 cells [1] [pg/mL]	interferon-γ levels (pg/ml), co-culture with K562-A2- Erythroleukemia cells [1] [pg/mL]	interferon-γ levels (pg/ml), co-culture with SKOV3 Ovarian cells [1] [pg/mL]	interferon-γ levels (pg/ml), co-culture with Skmel 37 cells [1] [pg/mL]	interferon-γ levels (pg/ml), co-culture with U251 Glioma cells [1] [pg/mL]	interferon-γ levels (pg/ml), co-culture with 293-A2-SSX2 cells [2] [pg/mL]	interferon-γ levels (pg/ml), co-culture with 624 mel cells [2] [pg/mL]	interferon-γ levels (pg/ml), co-culture with 938-A2 mel cells [2] [pg/mL]	interferon-γ levels (pg/ml), co-culture with 1300 mel cells [2] [pg/mL]	interferon-γ levels (pg/ml), co-culture with COS-A2-SSX2 cells [2] [pg/mL]	interferon-γ levels (pg/ml), co-culture with K562-A2- Erythroleukemia cells [2] [pg/mL]	interferon-γ levels (pg/ml), co-culture with SKOV3 Ovarian cells [2] [pg/mL]	interferon-γ levels (pg/ml), co-culture with Skmel 37 mel cells [2] [pg/mL]	interferon-γ levels (pg/ml), co-culture with U251 Glioma cells [2] [pg/mL]	Binder
52500	60200	46100	3160	85900	12800	11000	8940	22900	29800	27300	37000	2560	52600	12500	2410	6640	16700	SSX-2 TCR (HLA-A2 restricted TCR from a natural T cell clone, TRAV14/DV4*01 and TRBV15*02-CB1; expressed from the vector comprising SEQ ID NO: 27) (TCR) TCR alpha: MSLSSLLKVVTASLWLGPGIAQKITQTQPGMFVQEKEAVTLDCTYDTSDPSYGLFWYKQPSSGEMIFLIYQGSYDQQNATEGRYSLNFQKARKSANLVISASQLGDSAMYFCAMTSGFGNEKLTFGTGTRLTIIPNIQNPDPAVYQLRDSKSSDKSVCLFTDFDSQTNVSQSKDSDVYITDKTVLDMRSMDFKSNSAVAWSNKSDFACANAFNNSIIPEDTFFPSPESSCDVKLVEKSFETDTNLNFQNLSVIGFRILLLKVAGFNLLMTLRLWSS TCR beta: MGPGLLHWMALCLLGTGHGDAMVIQNPRYQVTQFGKPVTLSCSQTLNHNVMYWYQQKSSQAPKLLFHYYDKDFNNEADTPDNFQSRRPNTSFCFLDIRSPGLGDAAMYLCATSRGQGGQPQHFGDGTRLSILEDLNKVFPPEVAVFEPSEAEISHTQKATLVCLATGFFPDHVELSWWVNGKEVHSGVSTDPQPLKEQPALNDSRYCLSSRLRVSATFWQNPRNHFRCQVQFYGLSENDEWTQDRAKPVTQIVSAEAWGRADCGFTSVSYQQGVLSATILYEILLGKATLYAVLVSALVLMAMVKRKDF
49100	47100	51200	3050	138000	13600	22500	11400	21400	37500	37500	46300	2600	64100	21300	2530	8870	19200	codon-optimized SSX-2 TCR (expressed from the vector comprising SEQ ID NO: 29) (TCR) TCR alpha: MSLSSLLKVVTASLWLGPGIAQKITQTQPGMFVQEKEAVTLDCTYDTSDPSYGLFWYKQPSSGEMIFLIYQGSYDQQNATEGRYSLNFQKARKSANLVISASQLGDSAMYFCAMTSGFGNEKLTFGTGTRLTIIPNIQNPDPAVYQLRDSKSSDKSVCLFTDFDSQTNVSQSKDSDVYITDKTVLDMRSMDFKSNSAVAWSNKSDFACANAFNNSIIPEDTFFPSPESSCDVKLVEKSFETDTNLNFQNLSVIGFRILLLKVAGFNLLMTLRLWSS TCR beta: MGPGLLHWMALCLLGTGHGDAMVIQNPRYQVTQFGKPVTLSCSQTLNHNVMYWYQQKSSQAPKLLFHYYDKDFNNEADTPDNFQSRRPNTSFCFLDIRSPGLGDAAMYLCATSRGQGGQPQHFGDGTRLSILEDLNKVFPPEVAVFEPSEAEISHTQKATLVCLATGFFPDHVELSWWVNGKEVHSGVSTDPQPLKEQPALNDSRYCLSSRLRVSATFWQNPRNHFRCQVQFYGLSENDEWTQDRAKPVTQIVSAEAWGRADCGFTSVSYQQGVLSATILYEILLGKATLYAVLVSALVLMAMVKRKDF
47300	57700	40000	3460	164000	13600	9860	10600	20000	37300	47000	51100	2720	56900	17400	2220	10400	19000	codon-optimized human-mouse chimera SSX-2 TCR (codon-optimized SSX-2 TCR including mouse constant region; expressed from the vector comprising SEQ ID NO: 30) (TCR) TCR alpha: MSLSSLLKVVTASLWLGPGIAQKITQTQPGMFVQEKEAVTLDCTYDTSDPSYGLFWYKQPSSGEMIFLIYQGSYDQQNATEGRYSLNFQKARKSANLVISASQLGDSAMYFCAMTSGFGNEKLTFGTGTRLTIIPNDIQNPEPAVYQLKDPRSQDSTLCLFTDFDSQINVPKTMESGTFITDKTVLDMKAMDSKSNGAIAWSNQTSFTCQDIFKETNATYPSSDVPCDATLTEKSFETDMNLNFQNLSVMGLRILLLKVAGFNLLMTLRLWSS TCR beta: MGPGLLHWMALCLLGTGHGDAMVIQNPRYQVTQFGKPVTLSCSQTLNHNVMYWYQQKSSQAPKLLFHYYDKDFNNEADTPDNFQSRRPNTSFCFLDIRSPGLGDAAMYLCATSRGQGGQPQHFGDGTRLSILEDLRNVTPPKVSLFEPSKAEIANKQKATLVCLARGFFPDHVELSWWVNGKEVHSGVSTDPQAYKESNYSYCLSSRLRVSATFWHNPRNHFRCQVQFHGLSEEDKWPEGSPKPVTQNISAEAWGRACGITSSYQQGVLSATILYEILLGKATLYAVLVSTLVVMAMVKRKNS
